Source: the Immune Epitope Database (IEDB)
One block for each sequence: values may come before it.

Legend:
HLA-A*01:01 [1] = test: IEDB peptide-MHC binding, purified MHC/competitive/fluorescence; ≥ and ≤ were set here for values at or beyond the usual limits of such assays
HLA-A*02:01 [2] = test: as above
HLA-A*03:01 [3] = test: as above
HLA-A*11:01 [4] = test: as above
HLA-A*24:02 [5] = test: as above
HLA-A*25:01 = test: as above
HLA-A*29:02 [6] = test: as above
HLA-A*31:01 = test: as above
HLA-A*68:02 = test: as above
HLA-B*07:02 [7] = test: as above
HLA-B*08:01 = test: as above
HLA-B*14:02 = test: as above
HLA-B*18:01 = test: as above
HLA-B*35:01 = test: as above
HLA-B*37:01 = test: as above
HLA-B*40:02 = test: as above
HLA-B*44:03 = test: as above
HLA-B*51:01 = test: as above
HLA-B*53:01 = test: as above
HLA-B*58:01 [8] = test: as above
HLA-A*01:01 [9] = test: IEDB peptide-MHC binding, purified MHC/competitive/fluorescence; filed as Kd, often an IC50 or EC50 that approximates it; ≥ and ≤ were set here for values at or beyond the usual limits of such assays; conditions: source organism: Pseudomonas sp. MIS38
HLA-A*02:01 [10] = test: as above; conditions: source organism: Pseudomonas sp. MIS38
HLA-A*02:03 = test: as above; conditions: source organism: Pseudomonas sp. MIS38
HLA-A*02:06 = test: as above; conditions: source organism: Pseudomonas sp. MIS38
HLA-A*02:11 = test: as above; conditions: source organism: Pseudomonas sp. MIS38
HLA-A*02:12 = test: as above; conditions: source organism: Pseudomonas sp. MIS38
HLA-A*02:16 = test: as above; conditions: source organism: Pseudomonas sp. MIS38
HLA-A*02:19 = test: as above; conditions: source organism: Pseudomonas sp. MIS38
HLA-A*02:50 = test: as above; conditions: source organism: Pseudomonas sp. MIS38
HLA-A*03:01 [11] = test: as above; conditions: source organism: Pseudomonas sp. MIS38
HLA-A*11:01 [12] = test: as above; conditions: source organism: Pseudomonas sp. MIS38
HLA-A*24:02 [13] = test: as above
HLA-A*30:01 = test: as above; conditions: source organism: Pseudomonas sp. MIS38
HLA-A*69:01 = test: as above; conditions: source organism: Pseudomonas sp. MIS38
HLA-B*07:02 [14] = test: as above; conditions: source organism: Pseudomonas sp. MIS38
HLA-B*15:01 = test: as above; conditions: source organism: Pseudomonas sp. MIS38
HLA-B*27:05 = test: as above; conditions: source organism: Pseudomonas sp. MIS38
HLA-B*40:01 = test: as above; conditions: source organism: Pseudomonas sp. MIS38
HLA-B*58:01 [15] = test: as above; conditions: source organism: Pseudomonas sp. MIS38
HLA-C*07:02 = test: IEDB peptide-MHC binding, purified MHC/direct/fluorescence; filed as Kd, often an IC50 or EC50 that approximates it; ≥ and ≤ were set here for values at or beyond the usual limits of such assays; conditions: source organism: SARS-CoV1
HLA-A*01:01 [16] = test: IEDB peptide-MHC binding, purified MHC/competitive/radioactivity; filed as Kd, often an IC50 or EC50 that approximates it; ≥ and ≤ were set here for values at or beyond the usual limits of such assays; conditions: source organism: SARS coronavirus Tor2
HLA-A*23:01 = test: as above; conditions: source organism: SARS coronavirus Tor2
HLA-A*26:01 = test: as above; conditions: source organism: SARS coronavirus Tor2
HLA-A*29:02 [17] = test: as above; conditions: source organism: SARS coronavirus Tor2
HLA-A*30:02 = test: as above; conditions: source organism: SARS coronavirus Tor2
[18] = source organism: Gorilla gorilla gorilla
[19] = source organism: Monodelphis domestica

IC50 (HLA-A*01:01 [1]; [18]): ≥ 20 µM
IC50 (HLA-A*02:01 [2]; [18]): ≥ 20 µM
IC50 (HLA-A*03:01 [3]; [18]): ≥ 20 µM
IC50 (HLA-A*11:01 [4]; [18]): ≥ 20 µM
IC50 (HLA-A*24:02 [5]; [18]): 0.161 µM
IC50 (HLA-A*25:01; [18]): ≥ 20 µM
IC50 (HLA-A*29:02 [6]; [18]): ≥ 20 µM
IC50 (HLA-A*31:01; [18]): ≥ 20 µM
IC50 (HLA-A*68:02; [18]): ≥ 20 µM
IC50 (HLA-B*07:02 [7]; [18]): 17.3 µM
IC50 (HLA-B*08:01; [18]): ≥ 20 µM
IC50 (HLA-B*14:02; [18]): ≥ 20 µM
IC50 (HLA-B*18:01; [18]): ≥ 20 µM
IC50 (HLA-B*35:01; [18]): ≥ 20 µM
IC50 (HLA-B*37:01; [18]): ≥ 20 µM
IC50 (HLA-B*40:02; [18]): ≥ 20 µM
IC50 (HLA-B*44:03; [18]): ≥ 20 µM
IC50 (HLA-B*51:01; [18]): ≥ 20 µM
IC50 (HLA-B*53:01; [18]): ≥ 20 µM
IC50 (HLA-B*58:01 [8]; [18]): ≥ 20 µM
Sequence: RYSHWTKL

Kd (HLA-A*01:01 [9]): ≥ 20 µM
Kd (HLA-A*02:01 [10]): 0.0602 µM
Kd (HLA-A*02:03): 0.0042 µM
Kd (HLA-A*02:06): 0.0023 µM
Kd (HLA-A*02:11): 0.0094 µM
Kd (HLA-A*02:12): 0.0019 µM
Kd (HLA-A*02:16): 0.0005 µM
Kd (HLA-A*02:19): 0.0114 µM
Kd (HLA-A*02:50): 0.03 µM
Kd (HLA-A*03:01 [11]): ≥ 20 µM
Kd (HLA-A*11:01 [12]): ≥ 20 µM
Kd (HLA-A*24:02 [13]; source organism: Pseudomonas sp. MIS38): ≥ 20 µM
Kd (HLA-A*30:01): ≥ 20 µM
Kd (HLA-A*69:01): 2 µM
Kd (HLA-B*07:02 [14]): ≥ 20 µM
Kd (HLA-B*15:01): 3.35 µM
Kd (HLA-B*27:05): ≥ 20 µM
Kd (HLA-B*40:01): ≥ 20 µM
Kd (HLA-B*58:01 [15]): ≥ 20 µM
Sequence: YMLKDSAPT

Sequence: NYMPYVFTL
Kd (HLA-C*07:02): ≤ 0.001 µM
Kd (HLA-A*24:02 [13]; source organism: SARS-CoV1): ≤ 0.0001 µM
Kd (HLA-A*01:01 [16]): ≥ 78.1 µM
Kd (HLA-A*23:01): 0.00637 µM
Kd (HLA-A*26:01): ≥ 51.8 µM
Kd (HLA-A*29:02 [17]): 0.369 µM
Kd (HLA-A*30:02): 18.2 µM

IC50 (HLA-A*01:01 [1]; [19]): ≥ 20 µM
IC50 (HLA-A*02:01 [2]; [19]): ≥ 20 µM
IC50 (HLA-A*03:01 [3]; [19]): ≥ 20 µM
IC50 (HLA-A*11:01 [4]; [19]): 2.9 µM
IC50 (HLA-A*24:02 [5]; [19]): ≥ 20 µM
IC50 (HLA-A*25:01; [19]): ≥ 20 µM
IC50 (HLA-A*29:02 [6]; [19]): ≥ 20 µM
IC50 (HLA-A*31:01; [19]): ≥ 20 µM
IC50 (HLA-A*68:02; [19]): ≥ 20 µM
IC50 (HLA-B*07:02 [7]; [19]): ≥ 20 µM
IC50 (HLA-B*08:01; [19]): ≥ 20 µM
IC50 (HLA-B*14:02; [19]): ≥ 20 µM
IC50 (HLA-B*18:01; [19]): ≥ 20 µM
IC50 (HLA-B*35:01; [19]): ≥ 20 µM
IC50 (HLA-B*37:01; [19]): ≥ 20 µM
IC50 (HLA-B*40:02; [19]): ≥ 20 µM
IC50 (HLA-B*44:03; [19]): ≥ 20 µM
IC50 (HLA-B*51:01; [19]): ≥ 20 µM
IC50 (HLA-B*53:01; [19]): ≥ 20 µM
IC50 (HLA-B*58:01 [8]; [19]): ≥ 20 µM
Sequence: YSLEYFQFVKK
